Assay results from the supplement of paper PMC11246515.
± gives the standard deviation of the averaged measurements.

Assay: total protein half-life in vivo (active degradation + dilution); higher = more stable protein
[1] = E. coli NCM3722 delta-clpP delta-lon delta-hslV, growth: N-lim chemostat, doubling time 6 h
[2] = E. coli NCM3722 delta-clpP, growth: N-lim chemostat, doubling time 6 h
[3] = E. coli NCM3722 delta-hslV, growth: N-lim chemostat, doubling time 6 h
[4] = E. coli NCM3722 delta-lon, growth: N-lim chemostat, doubling time 6 h
[5] = E. coli NCM3722 delta-smpB, growth: N-lim chemostat, doubling time 6 h
[6] = wild type E. coli NCM3722, growth: C-lim chemostat, doubling time 3 h
[7] = wild type E. coli NCM3722, growth: C-lim chemostat, doubling time 6 h
[8] = wild type E. coli NCM3722, growth: C-lim chemostat, doubling time 12 h
[9] = wild type E. coli NCM3722, growth: N-lim chemostat, doubling time 6 h
[10] = wild type E. coli NCM3722, growth: P-lim chemostat, doubling time 6 h
[11] = wild type E. coli NCM3722, growth: P-lim chemostat, doubling time 12 h
[12] = wild type E. coli NCM3722, growth: N-lim chemostat, doubling time 12 h

| Sequence | total protein half-life in vivo [1] [h] | total protein half-life in vivo [2] [h] | total protein half-life in vivo [3] [h] | total protein half-life in vivo [4] [h] | total protein half-life in vivo [5] [h] | total protein half-life in vivo [6] [h] | total protein half-life in vivo [7] [h] | total protein half-life in vivo [8] [h] | total protein half-life in vivo [9] [h] | total protein half-life in vivo [10] [h] | total protein half-life in vivo [11] [h] | total protein half-life in vivo [12] [h] |
| --- | --- | --- | --- | --- | --- | --- | --- | --- | --- | --- | --- | --- |
| MAGLKLQAVTKSWDGKTQVIKPLTLDVADGEFIVMVGPSGCGKSTLLRMVAGLERVTEGDIWINDQRVTEMEPKDRGIAMVFQNYALYPHMSVEENMAWGLKIRGMGKQQIAERVKEAARILELDGLLKRRPRELSGGQRQRVAMGRAIVRDPAVFLFDEPLSNLDAKLRVQMRLELQQLHRRLKTTSLYVTHDQVEAMTLAQRVMVMNGGVAEQIGTPVEVYEKPASLFVASFIGSPAMNLLTGRVNNEGTHFELDGGIELPLNGGYRQYAGRKMTLGIRPEHIALSSQAEGGVPMVMDTLEILGADNLAHGRWGEQKLVVRLAHQERPTAGSTLWLHLAENQLHLFDGETGQRV | 6.33 ± 0.31 | 6 ± 0.91 | 5.83 ± 0.11 | 4.99 ± 0.61 | 5.45 ± 0.75 | 3.13 ± 0.15 | 5.54 ± 0.4 | 12 ± 0.92 | 5.14 ± 0.41 | 6.25 ± 0.35 | 13.2 ± 0.23 | – |
| MTRPIQASLDLQALKQNLSIVRQAATHARVWSVVKANAYGHGIERIWSAIGATDGFALLNLEEAITLRERGWKGPILMLEGFFHAQDLEIYDQHRLTTCVHSNWQLKALQNARLKAPLDIYLKVNSGMNRLGFQPDRVLTVWQQLRAMANVGEMTLMSHFAEAEHPDGISGAMARIEQAAEGLECRRSLSNSAATLWHPEAHFDWVRPGIILYGASPSGQWRDIANTGLRPVMTLSSEIIGVQTLKAGERVGYGGRYTARDEQRIGIVAAGYADGYPRHAPTGTPVLVDGVRTMTVGTVSMDMLAVDLTPCPQAGIGTPVELWGKEIKIDDVAAAAGTVGYELMCALALRVPVVTV | 4.49 ± 0.56 | 3.6 ± 0.35 | 3.14 ± 0.1 | 3.89 ± 0.29 | 3.37 ± 0.47 | 3.16 ± 0.19 | 6.2 ± 0.25 | 9.9 ± 0.72 | 3.6 ± 0.21 | 6.81 ± 1.4 | 11.9 ± 1.2 | 5.1 ± 0.33 |
| MSTIEERVKKIIGEQLGVKQEEVTNNASFVEDLGADSLDTVELVMALEEEFDTEIPDEEAEKITTVQAAIDYINGHQA [P0A6A8] | 7.12 ± 0.32 | 5.957 ± 0.032 | 5.79 ± 0.28 | 7.19 ± 0.17 | 4.78 ± 1.6 | 3.14 ± 0.069 | 4.95 ± 1.3 | 8.88 ± 0.96 | 4 ± 0.13 | 5 ± 1.2 | 10.8 ± 0.47 | – |
| MKNDVISPEFDENGRPLRRIRSFVRRQGRLTKGQEHALENYWPVMGVEFSEDMLDFPALFGREAPVTLEIGFGMGASLVAMAKDRPEQDFLGIEVHSPGVGACLASAHEEGLSNLRVMCHDAVEVLHKMIPDNSLRMVQLFFPDPWHKARHNKRRIVQVPFAELVKSKLQLGGVFHMATDWEPYAEHMLEVMSSIDGYKNLSESNDYVPRPASRPVTKFEQRGHRLGHGVWDLMFERVK [P0A8I5] | 5.11 ± 0.029 | 4.82 | 7.09 | – | 4.18 ± 0.61 | 2.73 | 4.88 ± 0.4 | 8.12 ± 0.26 | 4.58 ± 0.17 | 3.77 | 8.11 ± 0.11 | 7.49 ± 1.2 |
| MAKMRAVDAAMYVLEKEGITTAFGVPGAAINPFYSAMRKHGGIRHILARHVEGASHMAEGYTRATAGNIGVCLGTSGPAGTDMITALYSASADSIPILCITGQAPRARLHKEDFQAVDIEAIAKPVSKMAVTVREAALVPRVLQQAFHLMRSGRPGPVLVDLPFDVQVAEIEFDPDMYEPLPVYKPAASRMQIEKAVEMLIQAERPVIVAGGGVINADAAALLQQFAELTSVPVIPTLMGWGCIPDDHELMAGMVGLQTAHRYGNATLLASDMVFGIGNRFANRHTGSVEKYTEGRKIVHIDIEPTQIGRVLCPDLGIVSDAKAALTLLVEVAQEMQKAGRLPCRKEWVADCQQRKRTLLRKTHFDNVPVKPQRVYEEMNKAFGRDVCYVTTIGLSQIAAAQMLHVFKDRHWINCGQAGPLGWTIPAALGVCAADPKRNVVAISGDFDFQFLIEELAVGAQFNIPYIHVLVNNAYLGLIRQSQRAFDMDYCVQLAFENINSSEVNGYGVDHVKVAEGLGCKAIRVFKPEDIAPAFEQAKALMAQYRVPVVVEVILERVTNISMGSELDNVMEFEDIADNAADAPTETCFMHYE [P0AEP7] | 5.98 ± 0.97 | 3.5 ± 0.04 | 4.16 ± 0.24 | 3.51 | 3.85 ± 0.4 | 2.87 ± 0.1 | – | 7.8 ± 3.2 | 3.45 | 5.49 ± 0.69 | 11.9 ± 2 | 5.7 ± 0.37 |
| MPWIQLKLNTTGANAEDLSDALMEAGAVSITFQDTHDTPVFEPLPGETRLWGDTDVIGLFDAETDMNDVVAILENHPLLGAGFAHKIEQLEDKDWEREWMDNFHPMRFGERLWICPSWRDVPDENAVNVMLDPGLAFGTGTHPTTSLCLQWLDSLDLTGKTVIDFGCGSGILAIAALKLGAAKAIGIDIDPQAIQASRDNAERNGVSDRLELYLPKDQPEEMKADVVVANILAGPLRELAPLISVLPVSGGLLGLSGILASQAESVCEAYADSFALDPVVEKEEWCRITGRKN [P0A8T1] | 5.8 ± 2.4 | 4.39 ± 0.31 | 5.13 ± 1.4 | 4.36 ± 0.61 | 3.91 ± 0.063 | 3.16 ± 0.55 | 4.89 ± 0.5 | 9.36 ± 0.56 | 4.39 ± 0.22 | 5.37 ± 0.1 | 10.86 ± 0.1 | 6.89 ± 0.88 |
